In patent US20140213531A1:

Target: Tryptase, from human lung (human) (UniProt Q15661)
Experiment: enzyme inhibition, pNA substrate

Sequence of Tryptase, from human lung (human) (Q15661 31-275 limits assumed): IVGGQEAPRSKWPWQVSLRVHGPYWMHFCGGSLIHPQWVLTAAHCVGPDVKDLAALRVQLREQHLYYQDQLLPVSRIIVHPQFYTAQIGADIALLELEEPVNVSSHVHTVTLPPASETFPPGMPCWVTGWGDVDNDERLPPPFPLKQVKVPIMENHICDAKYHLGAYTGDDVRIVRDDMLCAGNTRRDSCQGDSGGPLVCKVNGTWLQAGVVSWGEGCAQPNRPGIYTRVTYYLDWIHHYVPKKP

% inhibition at 100 µM: 5.6%
B1: Example 93 (peptide)
peptide: XCTASIPPQCS
HELM: PEPTIDE1{[Nle].C.T.A.S.I.P.P.Q.C.S.[dP].P}$PEPTIDE1,PEPTIDE1,2:R3-10:R3|PEPTIDE1,PEPTIDE1,1:R1-13:R2$$$V2.0
SMILES: CCCC[C@@H]1NC(=O)[C@@H]2CCCN2C(=O)[C@H]2CCCN2C(=O)[C@H](CO)NC(=O)[C@@H]2CSSC[C@H](NC1=O)C(=O)N[C@@H]([C@@H](C)O)C(=O)N[C@@H](C)C(=O)N[C@@H](CO)C(=O)N[C@@H]([C@@H](C)CC)C(=O)N1CCC[C@H]1C(=O)N1CCC[C@H]1C(=O)N[C@@H](CCC(N)=O)C(=O)N2
